Where no end group is shown, it is not given here.
Biological target: HIV-1 integrase (IN) (HIV-1)

Binder | 3'-P IC50 (in vitro IN 3'-processing assay) | ST IC50 (in vitro IN strand transfer assay)
FIHFRIG-NH2 [peptide 1b (FIHFRIG-amide)] | 31.5 µM | 7.3 µM
Ac-FIHFRIG-NH2 [peptide 1c (Ac-FIHFRIG-amide)] | 23.5 µM | 4.7 µM

From publication PMC6222646, “HIV-1 Integrase-Targeted Short Peptides Derived from a Viral Protein R Sequence” (Molecules : A Journal of Synthetic Chemistry and Natural …, 2018)
